Experimental data from patent US7063950.

Assays:
[1] = biological target: human neuronal calcium channel subunits α1B-1α2b (human)
[2] = biological target: human neuronal calcium channel subunits α1B-2β1-2 (human); assay: saturation binding of 125I-ω-CgTx GVIA to transiently transfected HEK293 cells
[3] = biological target: human neuronal calcium channel α1B-1α2bβ1-3 (human); assay: as above
[4] = biological target: human neuronal calcium channel α1B-2α2bβ1-2 (human); assay: as above
[5] = biological target: human neuronal calcium channel subunits α1B-1β1-2 (human); assay: as above
[6] = biological target: human neuronal calcium channel subunits α1B-2β1-3 (human); assay: as above
[7] = biological target: human neuronal calcium channel α1B-1α2bβ1-2 (human); assay: as above
[8] = biological target: human neuronal calcium channel subunits α1B-1β1-3 (human); assay: as above
[9] = biological target: human neuronal calcium channel α1B-1α2bβ1-3 (human)
[10] = biological target: human neuronal calcium channel α1B-2α2bβ1-2 (human)
[11] = biological target: human neuronal calcium channel subunits α1B-1β1-2 (human)
[12] = biological target: human neuronal calcium channel subunits α1B-1α2b (human); remark: listed apart in the source
[13] = biological target: human neuronal calcium channel α1B-1α2bβ1-2 (human)
[14] = biological target: human neuronal calcium channel subunits α1B-1β1-3 (human)
[15] = biological target: human neuronal calcium channel α1E-3α2bβ1-3 (human); assay: cell-based or functional assay

Q: Which results are given for “125I-ω-CgTx GVIA (from UniProt P01522 46-72) (peptide)”?
A: Bmax (sites/cell) [1]: 2260 sites/cell; Kd [1]: 0.0846 nM; Bmax (sites/cell) [2]: 2130 sites/cell; Kd [2]: 0.0164 nM; Bmax (sites/cell) [3]: 91000 sites/cell; Kd [3]: 0.0532 nM; Bmax (sites/cell) [4]: 19400 sites/cell; Kd [4]: 0.053 nM; Bmax (sites/cell) [5]: 5760 sites/cell; Kd [5]: 0.0179 nM; Bmax (sites/cell) [6]: 2940 sites/cell; Kd [6]: 0.0222 nM; Bmax (sites/cell) [7]: 45300 sites/cell; Kd [7]: 0.0549 nM; Bmax (sites/cell) [8]: 8730 sites/cell; Kd [8]: 0.0179 nM; fold binding capacity against α1B-1α2bβ1-2 [9]: 2 fold; fold binding sites per cell against α1B-2α2bβ1-3 [9]: 2.5 fold; fold surface receptor density against α1B-1β1-3 [9]: 10 fold; fold surface receptor density against α1B-2β1-2 [10]: 9 fold; fold increase of surface binding against α1B-1 alone [11]: 8 fold; fold increase of binding capacity against α1B-1 alone [12]: 3 fold; fold binding sites per cell against α1B-2α2bβ1-2 [13]: 2.5 fold; fold surface receptor density against α1B-1β1-2 [13]: 8 fold; fold increase of surface binding against α1B-1 alone [14]: 10 fold

Q: How did the block of barium current (whole-cell patch clamp, HEK 293 cells) (% block at 10 nM) [15] turn out when “ω-Aga-IVa (from UniProt P30288 1-48) (peptide)” was run?
A: 73
